T1: Ac-LDL binding to His9-hMSR1 (Homo sapiens, UniProt P21757)
T1 construct: human MSR1 extracellular domain expressed with a N-terminal nonahistidine tag; purchased R&D Systems 2708-MS
T1 sequence (P21757 77-451 limits assumed): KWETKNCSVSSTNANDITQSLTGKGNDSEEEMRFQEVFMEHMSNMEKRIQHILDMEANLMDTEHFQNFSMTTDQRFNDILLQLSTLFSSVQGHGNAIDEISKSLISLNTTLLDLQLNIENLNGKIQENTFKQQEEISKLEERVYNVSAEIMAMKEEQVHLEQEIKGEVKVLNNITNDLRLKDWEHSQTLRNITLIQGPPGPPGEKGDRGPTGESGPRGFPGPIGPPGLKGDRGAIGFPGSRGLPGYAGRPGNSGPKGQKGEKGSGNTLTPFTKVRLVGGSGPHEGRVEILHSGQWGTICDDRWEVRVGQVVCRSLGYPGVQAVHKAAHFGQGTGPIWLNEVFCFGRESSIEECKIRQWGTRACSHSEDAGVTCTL

T2: biot-AGE-BSA binding to His9-hMSR1 (Homo sapiens, UniProt P21757)
T2 construct: human MSR1 extracellular domain expressed with a N-terminal nonahistidine tag; purchased R&D Systems 2708-MS
T2 sequence (P21757 77-451 limits assumed): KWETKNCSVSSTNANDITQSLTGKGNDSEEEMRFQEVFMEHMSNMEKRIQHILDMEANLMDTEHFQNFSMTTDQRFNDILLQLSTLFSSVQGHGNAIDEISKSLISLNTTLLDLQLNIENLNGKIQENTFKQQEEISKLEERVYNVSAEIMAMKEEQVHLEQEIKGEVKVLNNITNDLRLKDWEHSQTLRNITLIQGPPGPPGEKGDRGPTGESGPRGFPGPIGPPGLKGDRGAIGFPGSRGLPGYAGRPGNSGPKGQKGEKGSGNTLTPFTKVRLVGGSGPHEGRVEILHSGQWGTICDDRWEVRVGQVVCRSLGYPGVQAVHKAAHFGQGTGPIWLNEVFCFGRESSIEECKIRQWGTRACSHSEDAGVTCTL

T3: Ox-LDL binding to His9-hMSR1 (Homo sapiens, UniProt P21757)
T3 construct: human MSR1 extracellular domain expressed with a N-terminal nonahistidine tag; purchased R&D Systems 2708-MS
T3 sequence (P21757 77-451 limits assumed): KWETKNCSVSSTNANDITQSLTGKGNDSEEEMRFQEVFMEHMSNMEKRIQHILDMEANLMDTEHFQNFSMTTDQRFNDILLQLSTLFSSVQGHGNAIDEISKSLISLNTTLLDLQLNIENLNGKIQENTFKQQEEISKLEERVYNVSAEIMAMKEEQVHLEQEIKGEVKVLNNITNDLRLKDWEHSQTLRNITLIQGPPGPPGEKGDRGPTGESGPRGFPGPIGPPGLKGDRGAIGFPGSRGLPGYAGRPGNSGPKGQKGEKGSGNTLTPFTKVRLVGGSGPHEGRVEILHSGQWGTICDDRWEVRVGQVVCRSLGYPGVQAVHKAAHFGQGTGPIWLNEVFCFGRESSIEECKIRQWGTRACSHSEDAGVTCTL

T4: His9-hMSR1 (Homo sapiens, UniProt P21757)
T4 construct: human MSR1 extracellular domain expressed with a N-terminal nonahistidine tag; purchased R&D Systems 2708-MS
T4 sequence (P21757 77-451 limits assumed): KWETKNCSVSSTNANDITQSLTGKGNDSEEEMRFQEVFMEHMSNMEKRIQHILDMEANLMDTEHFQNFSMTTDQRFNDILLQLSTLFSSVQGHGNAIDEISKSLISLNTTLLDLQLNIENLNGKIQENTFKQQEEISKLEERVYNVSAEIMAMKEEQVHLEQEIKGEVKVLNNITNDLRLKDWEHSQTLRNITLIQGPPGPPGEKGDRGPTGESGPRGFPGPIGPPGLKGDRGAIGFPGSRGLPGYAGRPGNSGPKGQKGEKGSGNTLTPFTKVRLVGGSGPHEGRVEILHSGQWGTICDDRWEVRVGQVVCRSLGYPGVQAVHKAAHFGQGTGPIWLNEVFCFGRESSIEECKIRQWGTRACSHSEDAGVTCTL

T5: MSR1-mediated DiI-OxLDL uptake in HEK293.Myc.hMSR1 cells (Homo sapiens, UniProt P21757)
T5 construct: expressed in transfected cells; host or cells: HEK293 (lentiviral transduction, hygromycin selection)
T5 sequence (P21757 1-451): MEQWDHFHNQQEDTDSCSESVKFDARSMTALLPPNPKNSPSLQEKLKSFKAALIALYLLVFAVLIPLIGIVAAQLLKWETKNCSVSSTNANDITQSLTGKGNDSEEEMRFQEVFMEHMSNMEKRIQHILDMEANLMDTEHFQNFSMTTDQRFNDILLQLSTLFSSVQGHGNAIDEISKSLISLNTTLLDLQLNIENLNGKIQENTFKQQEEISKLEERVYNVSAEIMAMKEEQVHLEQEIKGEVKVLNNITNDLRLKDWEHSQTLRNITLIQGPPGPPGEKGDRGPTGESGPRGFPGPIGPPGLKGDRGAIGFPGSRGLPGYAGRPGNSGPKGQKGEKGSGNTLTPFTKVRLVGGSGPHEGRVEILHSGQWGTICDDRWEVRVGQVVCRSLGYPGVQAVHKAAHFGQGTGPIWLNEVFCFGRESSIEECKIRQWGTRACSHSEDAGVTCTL


How the values were obtained:
[1] = target: T1, Ac-LDL binding to His9-hMSR1; assay: Competition sandwich ELISA, Ac-LDL; conditions: anti-MSR1 antibody 100 nM, 50 pM Ac-LDL
Protocol: (§1) The ability of anti-MSR1 antibodies disclosed herein to block the binding of various ligands to human MSR1 was measured using three competition sandwich ELISA assays. The ligands used in the assays were: (1) acetylated LDL (Ac-LDL), (2) oxidized LDL (Ox-LDL), and (3) advanced glycation end-products of bovine serum albumin (AGE-BSA).
(§2) Anti-MSR1 antibodies or isotype control antibodies were serially diluted as appropriate for each tested ligand and added in duplicate for each serial dilution set to microtiter plates coated with His9-hMSR1. Buffer alone was also added to wells on each coat. […] This assay was conducted in four different assay runs.
(§3) Data analysis was performed using a sigmoidal dose-response model within Prism™ software (GraphPad). Percent blockade at maximum concentration of the antibody tested in each assay was calculated as an indicator of the ability of the antibodies to block the binding of Ac-LDL, Ox-LDL or biot-AGE-BSA to His9-hMSR1 on the plate relative to the baseline of the assay. In the calculation, binding signal of the same concentrations of Ac-LDL, Ox-LDL, or biot-AGE-BSA used for the assays in the absence of antibody was referenced as 100% binding or 0% blocking, while the baseline of the assay, defined as binding signal of the sample of buffer without MSR1 ligands or antibody, was referenced as 0% binding or 100% blocking. The maximum percent blockade at the highest concentration of antibody tested in each assay are reported for all antibodies.

[2] = target: T2, biot-AGE-BSA binding to His9-hMSR1; assay: Competition sandwich ELISA, biot-AGE-BSA; conditions: anti-MSR1 antibody 300 nM, 400 pM biot-AGE-BSA
Protocol: as §1
For the assay, recombinant monomeric human MSR1 protein comprised of a portion of the human MSR1 extracellular domain expressed with a N-terminal 9-Histidine tag (SEQ ID NO: 688) (His9-hMSR1; R&D Systems, Cat #2708-MS) was coated at a concentration of […] in PBS on a 96-well microtiter plate overnight at 4° C. for use in competition ELISA assays with Ac-LDL, Ox-LDL, or biotinylated-AGE-BSA (“biot-AGE-BSA”). […] Anti-MSR1 antibodies or isotype control antibodies were serially diluted as appropriate for each tested ligand and added in duplicate for each serial dilution set to microtiter plates coated with His9-hMSR1. Buffer alone was also added to wells on each coat. After 1 hour incubation at room temperature, without wash, a final constant concentration of 50 pM Ac-LDL (Life Technologies/ThermoFisher Scientific, Cat #L-35354), 5 nM or 10 nM Ox-LDL (Alfa Aesar, Cat #J65591), or 400 pM biot-AGE-BSA (R&D Systems, Cat #BT4127) were added to plates with His9-hMSR1, and the plates were incubated for an additional 1 hour at room temperature. (Concentrations of Ac-LDL, Ox-LDL and biot-AGE-BSA for antibody inhibition assays were selected from the approximate midway point within the linear portion of individual binding curves of Ac-LDL, Ox-LDL or biot-AGE-BSA to plate-coated His9-hMSR1.) Wells were washed, and plate-bound Ac-LDL or Ox-LDL were detected with anti-LDL rabbit antibody (Alfa Aesar, Cat #J64398) in combination with anti-rabbit IgG (H+L) specific donkey polyclonal antibodies conjugated with horseradish peroxidase (HRP) (JacksonImmunoResearch, Cat #711-035-152) and biot-AGE-BSA was detected with a streptavidin-HRP (ThermoFisher Scientific, Cat #N200). Plates were developed using TMB substrate solution (BD Biosciences, Cat #51-2606KC & Cat #51-2607KC) according to manufacturer's recommendation and absorbance at 450 nm was measured on a Victor™ Multilabel Plate Reader (PerkinElmer™). This assay was conducted in four different assay runs.
as §3, with “antibodies. Negative percent blockade numbers reflected higher MSR1 ligands binding to plate coated His9-hMSR1 in the presence of antibodies.” for “antibodies.”

[3] = target: T3, Ox-LDL binding to His9-hMSR1; assay: Competition sandwich ELISA, Ox-LDL; conditions: anti-MSR1 antibody 500 nM, Ox-LDL 10 nM
Protocol: as §1, §2, §3

His9-hMSR1 = target: T4, His9-hMSR1; assay: Cross-competition between anti-MSR1 antibodies (OCTET bio-layer interferometry); type: binding; conditions: label = first mAb (mAb-1) on His9-hMSR1 captured with anti-Penta-His Octet biosensors; value = competing mAb-2
Protocol: Binding competition between different anti-MSR1 antibodies was assessed using a real time, label-free bio-layer interferometry assay on an OCTET® HTX biosensor platform (Pall FortéBio Corp., Menlo Park, Calif.). The experiment was performed at 25° C. in 10 mM HEPES, 150 mM NaCl, 3 mM EDTA, 0.05% v/v Surfactant Tween-20, and 1 mg/mL BSA, pH 7.4 (HBS-EBT) buffer with the plate shaking at the speed of 1000 rpm.
To assess whether different antibodies are able to compete with one another for binding to their respective epitopes on the recombinant human MSR1 extracellular domain expressed with a N-terminal nonahistidine tag (SEQ ID NO: 688) (His9-hMSR1; R&D Systems, Cat #2708-MS), around […] of His9-hMSR1 was first captured onto anti-Penta-His antibody coated OCTET® biosensor tips (“Penta-His” disclosed as SEQ ID NO: 690) (Pall FortéBio Corp., #18-5122) by submerging the biosensor tips for 45 seconds into wells containing a […] solution of His9-hMSR1. The antigen-captured biosensor tips were then saturated with a first anti-MSR1 monoclonal antibody (subsequently referred to as “mAb-1”) by immersion into wells containing a […] solution of mAb-1 for 4 minutes. The biosensor tips were then submerged into wells containing a […] solution of a second anti-MSR1 monoclonal antibody (subsequently referred to as “mAb-2”) for 4 minutes. All of the biosensor tips were washed in HBS-EBT buffer in between each step of the experiment. The real-time binding response was monitored during the course of the experiment and the binding response at the end of each step was recorded. […] Table 17 explicitly defines the relationships of antibodies competing in both directions, independent of the order of binding.

[4] = target: T5, MSR1-mediated DiI-OxLDL uptake in HEK293.Myc.hMSR1 cells; assay: Ligand uptake assay, DiI-OxLDL; type: cell-based
Protocol: The resulting cell line, referred to here as “HEK293.Myc.hMSR1”, was selected and maintained in DMEM containing 10% FBS, NEAA, penicillin/streptomycin, L-glutamine, and 100 μg/mL hygromycin.
After 30 minutes, either oxidized or acetylated low-density lipoprotein (LDL) labeled with 1,1′ dioctadecyl-3,3,3′,3′-tetramethylindocarbocyanine perchlorate (referred to as “DiI-OxLDL” or “DiI-AcLDL,” respectively) was added to the cells at a constant concentration of 10 μg/mL. […] Results were analyzed using nonlinear regression (4-parameter logistics) with the Prism 7 program to obtain EC50 and IC50 values. The percentage of inhibition was calculated with the Relative Fluorescent Unit (RFU) values by using the following equation: […]
In the equation, “RFUBaseline” is the fluorescence value from the cells treated with 10 μg/mL ligand without antibodies, “RFUInhibition” is the minimum fluorescence value with for a particular antibody with 10 μg/mL ligand, and “RFUBackground” is the fluorescence value from cells without any ligand or antibodies.

Row | % Blocking of Ac-LDL binding to His9-hMSR1 [1] [%] | % Blocking of biot-AGE-BSA binding to His9-hMSR1 [2] [%] | % Blocking of Ox-LDL binding to His9-hMSR1 [3] [%] | mAb-2 antibodies which Compete with mAb-1 (His9-hMSR1) | inhibition of DiI-OxLDL uptake (in words) [4] | IC50, Dil-Oxidized LDL ([4]; 10 μg/mL DiI-OxLDL) | % Inhibition, Dil-Oxidized LDL ([4]; maximum inhibition of uptake, 10 μg/mL DiI-OxLDL) | Molecule
1 | 105 | 99 | 100 | Data Inconclusive** |  |  |  | H1H21227N: "Three anti-MSR1 antibodies ... (21227N, 21231N, 21234N) were produced with the original human Fcγ portion" (antibody, V domains shown) VH: QVQLVQSGAEVKKPGASVKVSCKVSGYTLTELSIHWVRQVPGKGLEWMGGFDPEEGETIFAQEFRDRVTLTEDTSPDTAYMELSSLKSEDAAVYYCTTPRYCNNGICYDYWGQGTLVTVSS VL: DIQMTQSPSSLSASVGDRVTITCRASQSISNYLNWYQQKPGKAPKLLIYTASSLQSGVPSRFSGSGSGTDFTLTISSLQTEDFATYYCQQSYSNFPITFGQGTRLEIKR
2 |  |  |  | Data Inconclusive** | no inhibition of DiI-OxLDL uptake | no inhibition | no inhibition | H1H27729P-N297Q: anti-MSR1 antibody; "Antibody H1H27729P-N297Q showed no inhibition of DiI-OxLDL uptake" (antibody, V domains shown) VH: QVQLVESGGGLVKPGGSLRLSCAASGFIFSDYYMSWIRQAPGKGLEWVSYISSSGTTIYGDSVKGRFTMSRDNAKNSLYLQMNSLRAEDTAVYYCARNYALFDYWGQGTLVTVSS VL: DIQMTQSPSSLSASVGDRVTITCQASQDISKYLNWYQQKPGKAPKLLIYYTSNLETGVPSRFSGSGSGTDFTFTISSLQPEDIATYYCHQSDYLPFTFGPGTKVDIKR

Reference: US11666658B2, “Rifamycin analogs and antibody-drug conjugates thereof” (Regeneron Pharmaceuticals, Inc., priority 2018, dated 2023)
